Assay results: patent US20230026259A1, “CA2 COMPOSITIONS AND METHODS FOR TUNABLE REGULATION” (Obsidian Therapeutics, Inc., priority 2019, published 2023)

Test system: T cells
Assay: CD40L expression of CA2 regulated CD40L constructs in T cells by FACS (dose response, time course)
Type: cell-based
Conditions: for CD40L positive / MFI: Ligand N/A; for CD40L MFI / Percentage CD40L positive cells: constitutive CD40L
Excerpt: CD40L constructs regulated by Carbonic anhydrase DDs were generated and cloned into lentiviral vectors. Purified T cells were thawed and cultured with aCD3 aCD28 Dynabeads (in the ratio of 3 beads to 1 T cell).
The constructs were transduced in T cells the next day. […]

B1: OT-001661: constitutive CD40L control (protein)
chain: MHMIETYNQTSPRSAATGLPISMKIFMYLLTVFLITQMIGSALFAVYLHRRLDKIEDERNLHEDFVFMKTIQRCNTGERSLSLLNCEEIKSQFEGFVKDIMLNKEETKKENSFEMQKGDQNPQIAAHVISEASSKTTSVLQWAEKGYYTMSNNLVTLENGKQLTVKRQGLYYIYAQVTFCSNREASSQAPFIASLCLKSPGRFERILLRAANTHSSAKPCGQQSIHLGGVFELQPGASVFVNVTDPSQVSHGTGFTSFGLLKL
CD40L positive (Example 9, All Cells): 98%
MFI (Example 9, All Cells): 20451
CD40L positive (Example 9, CD4+): 98.7%
MFI (Example 9, CD4+): 24489
CD40L positive (Example 9, CD8+): 97.8%
MFI (Example 9, CD8+): 14352
CD40L MFI (time course 2 hours, CD4+): 4042
Percentage CD40L positive cells (time course 2 hours, CD4+): 72.8%
CD40L MFI (time course 2 hours, CD8+): 2212
Percentage CD40L positive cells (time course 2 hours, CD8+): 56.9%
CD40L MFI (time course 4 hours, CD4+): 4651
Percentage CD40L positive cells (time course 4 hours, CD4+): 77%
CD40L MFI (time course 4 hours, CD8+): 2994
Percentage CD40L positive cells (time course 4 hours, CD8+): 63.2%
CD40L MFI (time course 6 hours, CD4+): 3156
Percentage CD40L positive cells (time course 6 hours, CD4+): 67.2%
CD40L MFI (time course 6 hours, CD8+): 1773
Percentage CD40L positive cells (time course 6 hours, CD8+): 48.5%
CD40L MFI (time course 24 hours, CD4+): 9491
Percentage CD40L positive cells (time course 24 hours, CD4+): 93.3%
CD40L MFI (time course 24 hours, CD8+): 3563
Percentage CD40L positive cells (time course 24 hours, CD8+): 71.2%
CD40L MFI (time course 48 hours, CD4+): 5639
Percentage CD40L positive cells (time course 48 hours, CD4+): 88.5%
CD40L MFI (time course 48 hours, CD8+): 2313
Percentage CD40L positive cells (time course 48 hours, CD8+): 71.1%
